Assay [1] has as its target T1, recombinant human VEGF165 (human, UniProt P15692-4 27-191).
T1 construct: Amine-coupled to a CM4 sensor chip; also called hVEGF165
Put plainly: SPR, BIAcore T100, hVEGF165 immobilized, 1:1 fit (FIG. 7B). From the text:
(§1) For binding affinity measurements, surface Plasmon resonance measurements with BIAcore™-T100 were employed. In these experiments, purified Escherichia coli-expressed recombinant human VEGF₁₆₅ (PeproTech EC Ltd) was used. Carboxymethylated dextran biosensor chips (CM4, GE Healthcare) were activated with N-ethyl-N′-(3-dimethylaminopropyl)carbodiimide hydrochloride and N-hydroxysuccinimide according to the supplier's instructions. Human VEGF₁₆₅ was coupled to 1 of the 4 different flow cells on a CM4 sensor chip using a standard amine-coupling procedure. The range of responses obtained with the immobilized hVEGF₁₆₅ molecule after coupling and blocking was approximately 120-140 response units (RU). The 4th flow cell of each chip was treated similarly except no proteins were immobilized prior to blocking, and the flow cell was used as in-line reference. Various concentrations of anti-VEGF scFvs (20 nM, 10 nM, 5 nM, 2.5 nM, 1.25 nM, 0.63 nM, 0.31 nM and 0.16 nM) in HBS-EP buffer (0.01 M HEPES, pH 7.4, 0.15 M NaCl, 3 mM EDTA, 0.005% surfactant P20) were injected into the flow cells at a flow rate of 30 μl/min for 5 min. […] The apparent dissociation rate constant (kd), the apparent association rate constant (kₐ) and the apparent dissociation equilibrium constant (KD) were calculated using one-to-one Langmuir binding model with BlAcore T100 evaluation Software version 1.1.
In general terms: In SPR one partner is held on a chip, and binding of the other changes the refractive index at the surface.

For assay [2], the target named is T1, recombinant human VEGF165. Kind of assay: SPR, BIAcore T100, hVEGF165 immobilized.
Text: as §1

For assay [3], the target named is T1, recombinant human VEGF165. Put plainly: SPR, BIAcore T100, hVEGF165 immobilized, 1:1 fit (FIG. 7A). An excerpt: For binding affinity measurements, surface Plasmon resonance measurements with BIAcore™-T100 were employed. In these experiments, purified Escherichia coli-expressed recombinant human VEGF₁₆₅ (PeproTech EC Ltd) was used. Carboxymethylated dextran biosensor chips (CM4, GE Healthcare) were activated with N-ethyl-N′-(3-dimethylaminopropyl)carbodiimide hydrochloride and N-hydroxysuccinimide according to the supplier's instructions. Human VEGF₁₆₅ was coupled to 1 of the 4 different flow cells on a CM4 sensor chip using a standard amine-coupling procedure. The range of responses obtained with the immobilized hVEGF₁₆₅ molecule after coupling and blocking was approximately 120-140 response units (RU). The 4th flow cell of each chip was treated similarly except no proteins were immobilized prior to blocking, and the flow cell was used as in-line reference. Various concentrations of anti-VEGF scFvs (20 nM, 10 nM, 5 nM, 2.5 nM, 1.25 nM, 0.63 nM, 0.31 nM and 0.16 nM) in HBS-EP buffer (0.01 M HEPES, pH 7.4, 0.15 M NaCl, 3 mM EDTA, 0.005% surfactant P20) were injected into the flow cells at a flow rate of 30 μl/min for 5 min. Dissociation of the anti-VEGF scFv from the VEGF on the CM4 chip was allowed to proceed for 10 min at 25° C. Sensorgrams were generated for each anti-VEGF scFv sample after in-line reference cell correction followed by buffer sample subtraction. The apparent dissociation rate constant (kd), the apparent association rate constant (kₐ) and the apparent dissociation equilibrium constant (KD) were calculated using one-to-one Langmuir binding model with BlAcore T100 evaluation Software version 1.1.

The target of assay [4] is T2, Human TNF alpha (human, UniProt P01375 77-233).
T2 construct: Coated on the ELISA plate
Put plainly: direct ELISA on coated human TNF alpha, detection with biotinylated rabbit anti-ESBA105 antibody and streptavidin poly-HRP, OD 450 nm. As for the experimental part:
Binding of ESBA105 and its derivatives was assessed by a direct ELISA. Human TNF alpha (PeproTech EC Ltd) was coated on a 96-well microtitre plate and then blocked using BSA (bovine serum albumin). ESBA105 and ESBA105 derivates were tested at concentrations of 50 nM, 12.5 nM, 3.13 nM, 1.56 nM, 0.78 nM, 0.39 nM, 0.20 nM, 0.10 nM and 0.05 nM. Binding of ESBA105 and its derivatives to human TNF alpha was visualized by the subsequent addition of a biotinylated rabbit polyclonal anti-ESBA105 antibody (AK3A, generated at ESBATech), streptavidin Poly HRP and a chromogenic substrate (POD). The product of this reaction was detected by measurement of the optical densitiy (OD) at […] using a spectrophotometer. Data were analyzed using a 4-parameter logistic curve fit, and EC₅₀ values were calculated from the dose-response curves of the scFvs.
(In general: ELISA stands for enzyme-linked immunosorbent assay.)

In general, koff refers to the first-order rate constant of dissociation. As a reminder, the kon is the rate constant with which the complex forms. The Kd is the constant that tells how readily two partners part at equilibrium. Usually EC50 (read off the curve) stands for the concentration at which the effect is half-maximal.

T1 sequence (P15692 other isoform, or with tags, fused parts or gaps limits assumed): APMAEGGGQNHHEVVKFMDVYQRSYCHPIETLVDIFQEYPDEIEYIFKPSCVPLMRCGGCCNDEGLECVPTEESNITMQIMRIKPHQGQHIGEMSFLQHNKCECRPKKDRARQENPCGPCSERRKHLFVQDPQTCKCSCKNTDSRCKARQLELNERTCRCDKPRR
T2 sequence (P01375 77-233 limits assumed): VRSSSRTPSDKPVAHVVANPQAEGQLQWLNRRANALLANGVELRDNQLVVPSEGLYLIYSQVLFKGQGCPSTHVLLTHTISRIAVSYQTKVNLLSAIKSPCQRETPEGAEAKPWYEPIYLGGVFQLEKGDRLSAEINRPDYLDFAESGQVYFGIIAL

B1: ESBA903 SS Pep1 linker (scFv)
scFv: MEIVMTQSPSTLSASVGDRVIITCQASEIIHSWLAWYQQKPGKAPKLLIYLASTLASGVPSRFSGSGSGAEFTLTISSLQPDDFATYYCQNVYLASTNGANFGQGTKLTVLGGGGGSGGGGSCGAHWQFNALTVRCGGGGSGGGGSEVQLVESGGGLVQPGGSLRLSCTASGFSLTDYYYMTWVRQAPGKGLEWVGFIDPDDDPYYATWAKGRFTISRDTSKNTVYLQMNSLRAEDTAVYYCAGGDHNSGWGLDIWGQGTLVTVSS
notes: also called ESBA903-Pep1
As to B1, in assay [1], the koff amounted to 5.03e-05 s⁻¹ and the kon came out at 1.13e+06 M⁻¹ s⁻¹. Further, in assay [2], the dissociation constant Kd is 0.0444 nM.

B2: ESBA903 (scFv)
scFv: MEIVMTQSPSTLSASVGDRVIITCQASEIIHSWLAWYQQKPGKAPKLLIYLASTLASGVPSRFSGSGSGAEFTLTISSLQPDDFATYYCQNVYLASTNGANFGQGTKLTVLGGGGGSGGGGSGGGGSGGGGSEVQLVESGGGLVQPGGSLRLSCTASGFSLTDYYYMTWVRQAPGKGLEWVGFIDPDDDPYYATWAKGRFTISRDTSKNTVYLQMNSLRAEDTAVYYCAGGDHNSGWGLDIWGQGTLVTVSS
notes: Anti-VEGF scFv; also called ESBA903 Normal linker; unmodified ESBA903
Consider B2, for which, in assay [3], the Kd was determined as 0.0561 nM, the koff is 4.31e-05 s⁻¹ and the kon worked out at 768000 M⁻¹ s⁻¹.

B3: ESBA105-SS-linker (scFv)
scFv: MADIVMTQSPSSLSASVGDRVTLTCTASQSVSNDVVWYQQRPGKAPKLLIYSAFNRYTGVPSRFSGRGYGTDFTLTISSLQPEDVAVYYCQQDYNSPRTFGQGTKLEVKRGGGGSGGGGSCGGGSGGGCGGGGSGGGGSQVQLVQSGAEVKKPGASVKVSCTASGYTFTHYGMNWVRQAPGKGLEWMGWINTYTGEPTYADKFKDRFTFSLETSASTVYMELTSLTSDDTAVYYCARERGDAMDYWGQGTLVTVSS
notes: un-pegylated
Take B3: the “EC50 (read off the curve)” value in assay [4] was about 1 nM.

B4: ESBA105 (scFv)
scFv: MADIVMTQSPSSLSASVGDRVTLTCTASQSVSNDVVWYQQRPGKAPKLLIYSAFNRYTGVPSRFSGRGYGTDFTLTISSLQPEDVAVYYCQQDYNSPRTFGQGTKLEVKRGGGGSGGGGSGGGGSSGGGSQVQLVQSGAEVKKPGASVKVSCTASGYTFTHYGMNWVRQAPGKGLEWMGWINTYTGEPTYADKFKDRFTFSLETSASTVYMELTSLTSDDTAVYYCARERGDAMDYWGQGTLVTVSS
notes: Untreated scFv (VL-linker-VH), made in E. coli; also called ESBA105 Normal linker; naked ESBA105
With B4, in assay [4], the “EC50 (read off the curve)” value was about 1 nM.

Source of the values: US20160354479A1 (ESBATECH AN ALCON BIOMEDICAL RESEARCH UNIT, published 2016).
